Data on one molecule can be found in patent publication US20230212270A1 (UNIVERSITY OF PITTSBURGH OF THE COMMONWEALTH SYSTEM OF …, published 2023).

In experiment [1] the target is T1, Human serum albumin (HSA) (human, UniProt P02768 25-609).
T1 construct: In SPR the HSA was immobilised on a CM5 chip
Briefly: SPR (Biacore 3000), HSA immobilised on CM5 chip, Nb as analyte. A general note: In SPR one partner is held on a chip, and binding of the other changes the refractive index at the surface.
Protocol: Nb Affinity measurement by surface plasmon resonance (SPR) Surface plasmon resonance (SPR, Biacore 3000 system, GE Healthcare) was used to measure Nb affinities. Briefly, a protein antigen such as GST, OMP25 PDZ domain or human serum albumin was immobilized to the flow channels of an activated CM5 sensor-chip. Protein analytes were diluted to 10-30 µg/ml in 10 mM sodium acetate, pH 4.5, and injected into the SPR system at 5 µl/min for 420 s. The surface was then blocked by 1 M ethanolamine-HCl (pH 8.5). For each Nb analyte, a series of dilution spanning approximately 1,000 fold was injected in duplicate, with HBS-EP+ running buffer (GE-Healthcare) containing 2 mM DTT, at a flow rate of 20- 30 µl/min for 120- 180 s, followed by a dissociation time of 5 - 20 mins based on dissociation rate. Between each injection, the sensor chip surface was regenerated with low pH buffer containing 10 mM glycine-HCl (pH 1.5- 2.5) at a flow rate of 40-50 µl/min for 30 s, or high pH buffer of 20-40 mM NaOH (pH 12- 13) at 40-50 µl/min for 30 s. Binding sensorgrams for each Nb were processed and analyzed using BIA evaluation by fitting with 1:1 Langmuir model or 1:1 Langmuir model with mass transfer.

In experiment [2] the target is T1, Human serum albumin (HSA). Briefly: affinity as cited in the structural example (SPR).

T1 sequence (P02768 25-609 limits assumed, form in doubt): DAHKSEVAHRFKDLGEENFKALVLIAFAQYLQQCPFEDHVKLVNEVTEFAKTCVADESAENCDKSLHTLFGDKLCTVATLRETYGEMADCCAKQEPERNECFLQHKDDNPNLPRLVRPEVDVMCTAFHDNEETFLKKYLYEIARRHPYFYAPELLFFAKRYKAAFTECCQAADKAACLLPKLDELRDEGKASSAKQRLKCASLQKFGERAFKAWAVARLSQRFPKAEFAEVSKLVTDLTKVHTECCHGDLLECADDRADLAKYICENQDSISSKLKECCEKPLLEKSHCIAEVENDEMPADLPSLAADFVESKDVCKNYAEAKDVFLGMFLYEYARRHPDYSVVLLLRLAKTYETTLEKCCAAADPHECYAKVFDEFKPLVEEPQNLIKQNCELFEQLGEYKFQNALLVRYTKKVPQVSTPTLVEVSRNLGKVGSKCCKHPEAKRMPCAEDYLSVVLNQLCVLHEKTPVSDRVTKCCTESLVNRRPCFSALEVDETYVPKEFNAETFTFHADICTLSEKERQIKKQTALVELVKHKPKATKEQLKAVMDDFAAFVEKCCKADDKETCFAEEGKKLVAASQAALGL

B1: Nb80 (VHH)
VHH: EVQLVESGGGLVQAGGSLRLSCTASGRTFTPYTMGWFRQAPGKEREFVASILWSGNNRDYADSVKGRFAISRDNAKNTAYLQMTSLKPEDTAVYYCAAGDGLGFYRSVNQYDYWGQGTQVTVS
notes: His-tagged nanobody from E. coli
As a reminder, the Kd is a measure of binding affinity in units of concentration. Low readings indicate higher affinity, high ones lower affinity. As usually defined, the koff is a measure of how fast the partners let go of each other. A low value points to a long-lived complex. As usually defined, the kon is a measure of how fast the partners come together. The low end stands for slow association, the high end for fast association. With B1, in experiment [1], the Kd amounted to 0.166 nM, the koff is 2.75e-05 s⁻¹ and the on-rate (kon) is 166000 M⁻¹ s⁻¹. This molecule returned a Kd in experiment [2] of 0.16 nM.
